Results reported in patent US20100297149A1 (ATYR PHARMA, published 2010).

Molecular target: T1, human CCR1-EGFP expressed on HEK293T cells (human, UniProt P32246 1-355)
T1 construct: whole, on cells; Transiently transfected HEK293T cells; the fusion localized to the cell membrane; also called CCR1-expressing cells; not shown: EGFP from the pEGFP-N1 vector
T1 sequence (looked up): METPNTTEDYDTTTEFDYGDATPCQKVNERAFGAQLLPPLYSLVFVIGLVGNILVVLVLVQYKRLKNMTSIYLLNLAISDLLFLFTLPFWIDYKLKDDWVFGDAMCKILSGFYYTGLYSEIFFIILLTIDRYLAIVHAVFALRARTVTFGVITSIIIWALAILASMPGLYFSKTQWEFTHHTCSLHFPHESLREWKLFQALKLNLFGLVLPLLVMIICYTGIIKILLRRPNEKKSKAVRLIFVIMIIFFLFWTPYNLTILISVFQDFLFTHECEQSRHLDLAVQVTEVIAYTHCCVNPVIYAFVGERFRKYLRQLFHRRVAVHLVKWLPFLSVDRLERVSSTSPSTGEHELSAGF
Assay: flow cytometry (FACS) on CCR1-EGFP-transfected HEK293T cells, detection with FITC anti-tag antibody
Method: Human CCR5 was amplified and cloned into to pEGFP-N1 vector. Human CCR1 receptor, also a CC chemokine receptor, was included as a control. HEK293T cells were transfected with CCR5-EGFP or CCR1-EGFP plasmids and 1d after transfection, cells were washed with PBS and detached from culture dish by trypsin. 1×10″6 cells were put into FACS tube in 100 μl complete media and kept on ice (cells were kept cold for remainder of the assay). Cells were treated with recombinant HRS-SV11 protein for 45′. Then cells were washed once with 1 ml staining buffer (1×PBS+3% FBS) and spin down at 4° C., 400×g for 10′. After wash, cells were incubated with 0.3 μl primary anti-V5-FITC antibody (3 μg/ml) in 100 μl staining buffer for 30′ in dark (kept in dark for remainder of the assay). Cells were then washed twice with 1 ml staining buffer, 4° C., 400×g for 10′ and spun down. After the final wash, cell pellets were resuspended in 800 μl staining buffer and analyzed immediately by FACS.

binding result: no binding
B1: recombinant HRS-SV11 splice variant polypeptide of human histidyl-tRNA synthetase with C-terminal polyhistidine tag (6xHis) (ligand)
chain: MAERAALEELVKLQGERVRGLKQQKASAELIEEEVAKLLKLKAQLGPDESKQKFVLKTPKALEEKIRTTETQVLVASAQKKLLEERLKLVSELWDAGIKAELLYKKNPKLLNQLQYCEEAGIPLVAIIGEQELKDGVIKLRSVTSREEVDVRREDLVEEIKRRTGQPLCICHHHHHH
notes: Expressed in E. coli from pET20b (EcoRV/NotI, no stop codon) and purified on Ni-NTA; By gel filtration it switches between monomer and dimer; also called wild type HRS-SV11
